# Measurements as given in PMC12905440.
# What was measured:
# Ago1 (RISC) [1] = target: Ago1 (RISC) (UniProt A1Z9J5); experiment: RBNS; details: RBNS: 20 mM HEPES-KOH pH 7.9, 100 mM KOAc, 3.5 mM Mg(OAc)2, 0.05% CHAPS, 2 mM DTT, 8% glycerol, BSA, tRNA, 25 C, 2 h, filter binding: 25 mM HEPES-KOH pH 7.9 …
# Ago1 (RISC) [2] = target: Ago1 (RISC) (UniProt A1Z9J5); experiment: double-filter binding; details: let-7 guide, RBNS: 20 mM HEPES-KOH pH 7.9, 100 mM KOAc, 3.5 mM Mg(OAc)2, 0.05% CHAPS, 2 mM DTT, 8% glycerol, BSA, tRNA, 25 C, 2 h, filter binding: 25 mM HEPES-KOH pH 7.9 …
# PUM2 (Homo sapiens) = target: T1, PUM2 (Homo sapiens) (UniProt Q8TB72); experiment: RBNS; details: re-analysis of published RBNS data (ref 38); RBNS: 20 mM HEPES-KOH pH 7.9, 100 mM KOAc, 3.5 mM Mg(OAc)2, 0.05% CHAPS, 2 mM DTT, 8% glycerol, BSA, tRNA, 25 C, 2 h; filter binding: 25 mM HEPES-KOH pH 7.9 …
# T1 sequence: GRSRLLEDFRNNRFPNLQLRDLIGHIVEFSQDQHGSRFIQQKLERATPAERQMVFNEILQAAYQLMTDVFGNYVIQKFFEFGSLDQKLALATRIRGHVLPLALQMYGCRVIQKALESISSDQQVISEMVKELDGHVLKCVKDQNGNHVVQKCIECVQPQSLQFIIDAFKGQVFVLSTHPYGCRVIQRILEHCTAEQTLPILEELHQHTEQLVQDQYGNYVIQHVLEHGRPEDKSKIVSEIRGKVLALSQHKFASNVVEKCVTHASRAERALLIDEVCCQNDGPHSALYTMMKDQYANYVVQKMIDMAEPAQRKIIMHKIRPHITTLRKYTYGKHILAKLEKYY
# Ago1 (RISC), sequence (A1Z9J5 entry or part of it): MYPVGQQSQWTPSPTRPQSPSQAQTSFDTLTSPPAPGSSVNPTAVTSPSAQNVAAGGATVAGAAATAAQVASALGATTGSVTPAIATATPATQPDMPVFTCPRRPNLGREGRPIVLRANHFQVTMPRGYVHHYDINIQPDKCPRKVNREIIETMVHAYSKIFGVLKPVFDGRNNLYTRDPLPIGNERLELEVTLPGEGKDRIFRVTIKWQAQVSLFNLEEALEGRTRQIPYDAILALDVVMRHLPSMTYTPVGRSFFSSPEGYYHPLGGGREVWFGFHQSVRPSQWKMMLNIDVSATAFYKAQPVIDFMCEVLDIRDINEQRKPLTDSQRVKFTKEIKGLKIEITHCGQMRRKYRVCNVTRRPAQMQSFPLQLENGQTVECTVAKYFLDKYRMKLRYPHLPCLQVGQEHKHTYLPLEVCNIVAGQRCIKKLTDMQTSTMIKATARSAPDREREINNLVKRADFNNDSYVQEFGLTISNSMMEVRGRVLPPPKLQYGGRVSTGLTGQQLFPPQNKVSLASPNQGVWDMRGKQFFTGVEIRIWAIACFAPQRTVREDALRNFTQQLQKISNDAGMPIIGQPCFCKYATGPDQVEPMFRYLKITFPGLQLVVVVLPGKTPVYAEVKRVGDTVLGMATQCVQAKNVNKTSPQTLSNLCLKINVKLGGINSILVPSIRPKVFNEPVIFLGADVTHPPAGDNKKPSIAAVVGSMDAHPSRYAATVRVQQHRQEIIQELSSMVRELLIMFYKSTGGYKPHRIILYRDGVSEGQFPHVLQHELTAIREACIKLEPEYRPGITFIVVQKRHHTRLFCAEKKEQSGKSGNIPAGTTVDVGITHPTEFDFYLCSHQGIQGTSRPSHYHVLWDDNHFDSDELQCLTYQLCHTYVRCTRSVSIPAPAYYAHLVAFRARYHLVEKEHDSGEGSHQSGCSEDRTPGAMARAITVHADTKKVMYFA
substance,measurement,setting,value
"UCCGUCUB / UGGACGGAGAACUGAUAAGGGC [miR-184 / 7mer-m8,w2]",Kd,Ago1 (RISC) [1]; miR-184 guide,0.154 nM
"CUACCUUB / UGAGGUAGUAGGUUGUAUAGU [let-7 / 7mer-m8,w2]",Kd,Ago1 (RISC) [1]; let-7 guide,0.278 nM
let-7 guide / fully complementary target (Fig 1c),Kd,Ago1 (RISC) [2],0.002 nM
"UGAUCUUB / UGAGAUCAUUUUGAAAGCUGAUU [bantam / 7mer-m8,w2]",Kd,Ago1 (RISC) [1]; bantam guide,0.866 nM
let-7 guide / seed-matching target (Fig 1c),Kd,Ago1 (RISC) [2]; 5' 32P target,0.005 nM
UGUAUAUA [PUM consensus site],Kd,PUM2 (Homo sapiens),0.12 nM
